The target in test [1] is T1, FcγRIIB (human, UniProt P31994 46-217, limits assumed).
T1 construct: Soluble protein used in SPR
T1 sequence (looked up): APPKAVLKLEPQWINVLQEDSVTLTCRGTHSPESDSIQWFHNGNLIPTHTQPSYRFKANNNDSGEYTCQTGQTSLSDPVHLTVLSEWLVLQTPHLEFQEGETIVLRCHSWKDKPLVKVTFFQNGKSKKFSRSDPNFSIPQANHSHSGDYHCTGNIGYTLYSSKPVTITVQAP
The experiment in a line: SPR; molecule captured on CM5 chip, FcγR as analyte; steady-state fit. How it is done:
(§1) Binding assays using SPR were performed to determine the binding affinity of the exemplary molecules. Molecules were captured on a CM5 SPR chip. Increasing concentrations of FcγR analyte (FcγRIIA167H, FcγRIIA167R or FcγRIIB) were subsequently injected over the captured molecules and a single dissociation performed using single cycle kinetics. The data was then analyzed using steady state analysis which is suitable for low affinity interactions. In particular, a plot of response at equilibrium against the molecule concentration was generated.

In test [2] the target is T2, FcγRIIA167H (UniProt P12318 36-218).
T2 construct: Soluble protein used in SPR
T2 sequence (looked up): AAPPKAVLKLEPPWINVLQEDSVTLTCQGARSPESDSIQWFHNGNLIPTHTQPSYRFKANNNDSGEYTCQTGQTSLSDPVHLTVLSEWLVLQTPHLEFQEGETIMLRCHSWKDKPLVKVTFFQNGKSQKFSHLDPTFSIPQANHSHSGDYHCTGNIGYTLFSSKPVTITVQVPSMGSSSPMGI
Briefly: SPR, molecule captured on the sensor chip, FcγRIIA167H as analyte. How it is done: as §1

Test [3] concerns the target T3, FcγRIIA167R (UniProt P12318 36-218).
T3 construct: Soluble protein used in SPR
T3 sequence (looked up): T2 sequence (looked up) with H132R
Briefly: SPR, molecule captured on the sensor chip, FcγRIIA167R as analyte. The protocol:
as §1
For orientation: SPR reads the build-up and loss of mass on a sensor chip optically.

The next test concerns the target T4, human C1q (human, UniProt P02745 23-245; P02746 28-253; P02747 29-245).
T4 construct: also called complement (C1q)
Briefly: ELISA (n=2), serial dilutions of the molecule coated on the plate, human C1q at 5 µg/mL, anti-C1q HRP detection.

Test [4] addresses T1, FcγRIIB. Briefly: SPR, molecule captured on the sensor chip, FcγRIIB as analyte; steady state plot of response against analyte concentration.
The target in test [5] is T5, FcγRIIB expressed on cells (CHO-FcγRIIB+ cells; primary human cells that express FcγRIIB) (human, UniProt P31994 43-310).
T5 construct: whole, on cells; also called FcγRIIB-expressing CHO cells
T5 sequence (looked up): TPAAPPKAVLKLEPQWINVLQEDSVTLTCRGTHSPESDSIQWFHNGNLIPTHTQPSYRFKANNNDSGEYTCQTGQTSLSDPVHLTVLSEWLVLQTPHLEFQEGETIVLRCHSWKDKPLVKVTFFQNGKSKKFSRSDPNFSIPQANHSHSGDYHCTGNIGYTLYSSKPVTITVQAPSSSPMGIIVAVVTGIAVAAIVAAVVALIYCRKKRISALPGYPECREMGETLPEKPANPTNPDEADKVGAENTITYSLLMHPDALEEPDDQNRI
The experiment in a line: flow cytometry, CHO cells expressing FcγRIIB, molecule pre-complexed with M22-PE at 1:1 or 4:1 molar ratio, with and without anti-FcγRIIB antibody 2B6. The protocol:
Cells expressing FcγRIIB are seeded in a 96-well plate and stained with Live/Dead Violet Fixable Dye. Next, the pre-complexed molecule and autoantibody are incubated with the cells at various concentrations at either 4C (to assess binding) or 37C (to assess uptake). After incubation, cells are washed with PBS (binding) or acidic media to remove surface-bound complexes (uptake). Cellular fluorescence is determined by flow cytometry.
(In general: Flow cytometry measures light scatter and fluorescence of single cells or particles in a stream.)

Test [6] has as its target T3, FcγRIIA167R. The experiment in a line: SPR; molecule captured on CM5 chip, FcγR as analyte; steady-state fit. How it is done:
as §1

The target in test [7] is T2, FcγRIIA167H. Described as above. How it is done: as §1

Data on nine molecules can be found in US20260167684A1 (MERIDA BIOSCIENCES, published 2026).

Numbering of substitutions follows the chain as printed. In names and notes the source's numbering stands.

T4 sequence (P02745 23-245 limits assumed, chain 1 of 3): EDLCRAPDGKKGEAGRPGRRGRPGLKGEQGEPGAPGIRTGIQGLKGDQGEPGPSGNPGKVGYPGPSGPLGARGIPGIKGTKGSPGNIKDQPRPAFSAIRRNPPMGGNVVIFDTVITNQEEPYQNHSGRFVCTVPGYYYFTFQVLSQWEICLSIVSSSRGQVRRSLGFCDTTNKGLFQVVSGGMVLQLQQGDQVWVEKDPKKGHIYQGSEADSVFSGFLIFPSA
T4 sequence (P02746 28-253 limits assumed, chain 2 of 3): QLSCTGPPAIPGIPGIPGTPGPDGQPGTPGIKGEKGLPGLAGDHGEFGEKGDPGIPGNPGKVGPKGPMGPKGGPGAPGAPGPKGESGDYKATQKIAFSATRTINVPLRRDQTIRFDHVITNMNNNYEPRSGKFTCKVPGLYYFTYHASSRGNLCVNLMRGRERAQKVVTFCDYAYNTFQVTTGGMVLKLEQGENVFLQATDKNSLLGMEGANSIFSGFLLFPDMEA
T4 sequence (P02747 29-245 limits assumed, chain 3 of 3): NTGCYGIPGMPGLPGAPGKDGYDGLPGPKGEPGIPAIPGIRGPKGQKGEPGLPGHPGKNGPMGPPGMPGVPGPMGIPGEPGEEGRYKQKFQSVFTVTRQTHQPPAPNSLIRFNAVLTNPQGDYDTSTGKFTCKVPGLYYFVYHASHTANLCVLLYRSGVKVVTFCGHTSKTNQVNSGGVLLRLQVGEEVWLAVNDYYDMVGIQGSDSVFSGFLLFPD
Experimental for human C1q: An IgG4 was used as a negative control.
Varying dilutions of each exemplary molecule or one of the controls were tested for binding to C1q by ELISA where serial dilutions of molecules or controls were coated on a plate (at 0.01 μg/mL, 0.1 μg/mL, 1.0 μg/mL, 10.0 μg/mL, 100.0 μg/mL, and 1000 μg/mL) overnight at 4 C. After blocking and subsequent wash steps, human C1q at 5 μg/mL was added to the ELISA plate for 1 hour at room temperature. The plate was washed and a sheep polyclonal anti-C1q HRP antibody at 1:200 dilution was added and incubated for an additional 1 hour. Development of the ELISA plate was carried out by addition of TMB. Color development was then stopped with addition of 3N HCl. Plate absorbance was read at 450 nm using a plate ready.

B1: Variant G2 (Fc fusion)
chain 1: MGCSSPPCECHQEEDFRVTCKDIQRIPSLPPSTQTLKLIETHLRTIPSHAFSNLPNISRIYVSIDVTLQQLESHSFYNLSKVTHIEIRNTPNLTYIDPDALKELPLLKFLGIFNTGLKMFPPLTKVYSTDIFFILEITDNPYMTSIPRNAFQGLCNETLTLKLYNNGFTSVQGYAFNGTKLDAVYLNKNKYLTVIDKDAFGGVYSGPSLLDVSQTSVTALPSKGLEHLKELRARNTWTLDKTHTCPPCPAPVDFRDPLVFLFPPKPKDTLMISRTPEVTCVVVDVDPEDPEVKFNWYVDGVEVHNAKTKPQEEQYNGAYRVVSVLTVLHQDWLNGKEYKCKVSNKLAPHPIIKTISKAKGQPREPQVYTLPPCRDELTKNQVSLWCLVKGFYPSDIAVEWESNGQPENNYKTTPPVLDSDGSFFLYSKLTVDKSRWQQGNVFSCSVMHEALHNHYTQKSLSLSPGK
chain 2: DKTHTCPPCPAPVDFRDPLVFLFPPKPKDTLMISRTPEVTCVVVDVDPEDPEVKFNWYVDGVEVHNAKTKPQEEQYNGAYRVVSVLTVLHQDWLNGKEYKCKVSNKLAPHPIIKTISKAKGQPREPQVCTLPPSRDELTKNQVSLSCAVKGFYPSDIAVEWESNGQPENNYKTTPPVLDSDGSFFLVSKLTVDKSRWQQGNVFSCSVMHEALHNHYTQKSLSLSPGK
notes: Knob-in-hole heterodimer; also called TSHR260 2P2R huIgG1 Fc E233V/L234D/L235F/G236R/G237D/S239L/S267D/R292Q/H268P/S298G/T299A/A327L/L328A/A330H/E333I
With B1, binding with FcγRIIB [1] was characterised by a dissociation constant (Kd) of 2610 nM. In addition, the binding result with FcγRIIA167H [2] is on record as “no binding (tested: about 2.4e-6 M)”.

B2: Variant G3 (Fc fusion)
chain 1: B1 chain 1 with D286S
chain 2: B1 chain 2 with D47S
notes: Knob-in-hole heterodimer; also called TSHR260 2P2R huIgG1 Fc E233V/L234D/L235F/G236R/G237D/S239L/H268P/R292Q/S298G/T299A/A327L/L328A/A330H/E333I
On to B2, for which, in the test with FcγRIIB [1], the Kd (commonly the free concentration of one partner at which half of the binding sites on the other are occupied at equilibrium, for simple one-to-one binding) turned out to be 3650 nM. In addition, the binding result with FcγRIIA167R [3] and with FcγRIIA167H [2] was “no binding (tested: about 2.4e-6 M)” throughout.

B3: Variant G1 (Fc fusion)
chain 1: B1 chain 1 with Q311R
chain 2: B1 chain 2 with Q72R
notes: Knob-in-hole heterodimer; also called TSHR260 2P2R huIgG1 Fc E233V/L234D/L235F/G236R/G237D/S239L/S267D/H268P/S298G/T299A/A327L/L328A/A330H/E333I
In turn, B3 registered a dissociation constant Kd in the test with FcγRIIB [1] of 2620 nM. The binding result with FcγRIIA167H [2] was “no binding (tested: about 2.4e-6 M)”.

B4: Variant E3 (Fc fusion)
chain 1: MGCSSPPCECHQEEDFRVTCKDIQRIPSLPPSTQTLKLIETHLRTIPSHAFSNLPNISRIYVSIDVTLQQLESHSFYNLSKVTHIEIRNTPNLTYIDPDALKELPLLKFLGIFNTGLKMFPPLTKVYSTDIFFILEITDNPYMTSIPRNAFQGLCNETLTLKLYNNGFTSVQGYAFNGTKLDAVYLNKNKYLTVIDKDAFGGVYSGPSLLDVSQTSVTALPSKGLEHLKELRARNTWTLDKTHTCPPCPAPELLGGDSVFLFPPKPKDTLMISRTPEVTCVVVDVSHEDPEVKFNWYVDGVEVHNAKTKPREEQYNSTYRVVSVLTVLHQDWLNGKEYKCKVSNKALPAPIEKTISKAKGQPREPQVYTLPPCRDELTKNQVSLWCLVKGFYPSDIAVEWESNGQPENNYKTTPPVLDSDGSFFLYSKLTVDKSRWQQGNVFSCSVLHEALHSHYTQKSLSLSPGK
chain 2: DKTHTCPPCPAPELLGGDSVFLFPPKPKDTLMISRTPEVTCVVVDVSHEDPEVKFNWYVDGVEVHNAKTKPREEQYNSTYRVVSVLTVLHQDWLNGKEYKCKVSNKALPAPIEKTISKAKGQPREPQVCTLPPSRDELTKNQVSLSCAVKGFYPSDIAVEWESNGQPENNYKTTPPVLDSDGSFFLVSKLTVDKSRWQQGNVFSCSVLHEALHSHYTQKSLSLSPGK
notes: Knob-in-hole heterodimer; also called TSHR260 2P2R huIgG1 Fc P238D/LS; TSHR260 2P2R huIgG1 with P238D and LS
Turning to B4, the binding result is “no binding (tested: 100 µg/mL)” in the test with human C1q, “binds” with FcγRIIB [4] and “binds” in test [5].

B5: Variant G4 (Fc fusion)
chain 1: B4 chain 1 with E252D, G256D, H287D, P290G, A349R, L447M, S453N
chain 2: B4 chain 2 with E13D, G17D, H48D, P51G, A110R, L208M, S214N
notes: Knob-in-hole heterodimer; also called TSHR260 2P2R huIgG1 Fc E233D/G237D/P238D/H268D/P271G/A330R
With B5, the Kd was determined as 55.6 nM in the test with FcγRIIB [1] and 836 nM with FcγRIIA167R [6].

B6: Variant G6 (Fc fusion)
chain 1: B4 chain 1 with L253D, G255N, D257P, S286E, L447M, S453N
chain 2: B4 chain 2 with L14D, G16N, D18P, S47E, L208M, S214N
notes: Knob-in-hole heterodimer; also called TSHR260 2P2R huIgG1 Fc L234D/G236N/S267E
As to B6, in the test with FcγRIIB [1], the Kd was found to be 335 nM. In the test with FcγRIIA167H [2], the binding result was “no binding (tested: about 2.4e-6 M)”.

B7: Variant G12 (Fc fusion)
chain 1: B4 chain 1 with G256D, P290G, A349R, D375E, L377M, L447M, S453N
chain 2: B4 chain 2 with G17D, P51G, A110R, D136E, L138M, L208M, S214N
notes: Knob-in-hole heterodimer; also called TSHR260 2P2R huIgG1 Fc G237D/P238D/P271G/A330R
For B7, the Kd worked out at 22.3 nM with FcγRIIB [1], 369 nM in the test with FcγRIIA167R [6] and 3810 nM with FcγRIIA167H [7].

B8: Variant G14 (Fc fusion)
chain 1: B4 chain 1 with D257P, S258D, H287D, L347W, L447M, S453N
chain 2: B4 chain 2 with D18P, S19D, H48D, L108W, L208M, S214N
notes: Knob-in-hole heterodimer; also called TSHR260 2P2R huIgG1 Fc S239D/H268D/L328W
For the molecule B8, the Kd is 30.9 nM in the test with FcγRIIB [1], 4.32 nM with FcγRIIA167R [6] and 114 nM with FcγRIIA167H [7].

B9: Variant G13 (Fc fusion)
chain 1: B4 chain 1 with G256D, D289E, P290G, A349R, D375E, L377M, L447M, S453N
chain 2: B4 chain 2 with G17D, D50E, P51G, A110R, D136E, L138M, L208M, S214N
notes: Knob-in-hole heterodimer; also called TSHR260 2P2R huIgG1 Fc G237D/P238D/D270E/P271G/A330R
With B9, the Kd with FcγRIIB [1] was 127 nM; with FcγRIIA167R [6] it was 1790 nM.
